# Data published in article PMC10484678.
# Biological target: PCBP2 KH1/2 (human, UniProt Q15366 1-168)
# Assay: ITC
# Chain of PCBP2 KH1/2 (Q15366 1-168): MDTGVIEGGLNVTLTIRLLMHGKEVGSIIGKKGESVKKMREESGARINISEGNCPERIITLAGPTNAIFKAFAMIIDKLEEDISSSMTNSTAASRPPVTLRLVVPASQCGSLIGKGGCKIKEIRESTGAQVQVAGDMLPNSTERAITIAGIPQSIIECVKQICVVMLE
binder,measurement,value
GCUCUGGGGUUGUACCCACCCCAGAGC (structured_RNA) [PV stem-loop B],Kd,22.9 ± 6.3 µM
